Assay results taken from publication PMC10438457 (Science Advances, 2023).

B1: GST-CDK5RAP3 (natural protein)
chain: MEDHQHVPIDIQTSKLLDWLVDRRHCSLKWQSLVLTIREKINAAIQDMPESEEIAQLLSGSYIHYFHCLRILDLLKGTEASTKNIFGRYSSQRMKDWQEIIALYEKDNTYLVELSSLLVRNVNYEIPSLKKQIAKCQQLQQEYSRKEEECQAGAAEMREQFYHSCKQYGITGENVRGELLALVKDLPSQLAEIGAAAQQSLGEAIDVYQASVGFVCESPTEQVLPMLRFVQKRGNSTVYEWRTGTEPSVVERPHLEELPEQVAEDAIDWGDFGVEAVSEGTDSGISAEAAGIDWGIFPESDSKDPGGDGIDWGDDAVALQITVLEAGTQAPEGVARGPDALTLLEYTETRNQFLDELMELEIFLAQRAVELSEEADVLSVSQFQLAPAILQGQTKEKMVTMVSVLEDLIGKLTSLQLQHLFMILASPRYVDRVTEFLQQKLKQSQLLALKKELMVQKQQEALEEQAALEPKLDLLLEKTKELQKLIEADISKRYSGRPVNLMGTSL
B2: UFC1 (recombinant, GST tag cleaved) (enzyme)
chain: MADEATRRVVSEIPVLKTNAGPRDRELWVQRLKEEYQSLIRYVENNKNADNDWFRLESNKEGTRWFGKCWYIHDLLKYEFDIEFDIPITYPTTAPEIAVPELDGKTAKMYRGGKICLTDHFKPLWARNVPKFGLAHLMALGLGPWLAVEIPDLIQKGVIQHKEKCNQ

How the values were obtained:
[1] = biological target: T1, MBP-UFL1 (UniProt O94874 1-794); assay: pull-down
T1 sequence: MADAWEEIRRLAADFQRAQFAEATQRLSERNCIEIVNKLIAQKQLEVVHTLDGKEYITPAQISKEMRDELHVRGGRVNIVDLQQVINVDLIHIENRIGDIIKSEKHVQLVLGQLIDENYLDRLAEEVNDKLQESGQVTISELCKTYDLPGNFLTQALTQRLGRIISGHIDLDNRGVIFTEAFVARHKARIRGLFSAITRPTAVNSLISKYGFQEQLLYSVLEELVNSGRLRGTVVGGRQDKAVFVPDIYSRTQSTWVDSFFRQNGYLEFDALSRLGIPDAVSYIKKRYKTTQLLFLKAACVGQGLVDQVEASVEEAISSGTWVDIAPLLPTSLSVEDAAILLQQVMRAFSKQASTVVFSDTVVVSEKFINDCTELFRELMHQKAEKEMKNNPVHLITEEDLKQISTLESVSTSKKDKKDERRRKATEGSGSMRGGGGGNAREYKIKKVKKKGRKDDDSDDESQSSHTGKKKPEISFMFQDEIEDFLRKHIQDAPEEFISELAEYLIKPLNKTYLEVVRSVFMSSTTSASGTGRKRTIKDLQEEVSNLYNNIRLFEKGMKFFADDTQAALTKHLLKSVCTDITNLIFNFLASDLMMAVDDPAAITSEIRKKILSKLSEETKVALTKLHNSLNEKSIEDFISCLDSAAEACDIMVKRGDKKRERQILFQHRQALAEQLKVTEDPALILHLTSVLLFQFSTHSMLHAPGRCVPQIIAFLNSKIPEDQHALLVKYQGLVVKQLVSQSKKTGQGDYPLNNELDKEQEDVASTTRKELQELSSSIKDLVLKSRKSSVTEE

[2] = biological target: B1; assay: pull-down
[3] = biological target: B2; assay: ITC

Binder: B1
- binding result [1]: binds

Binder: B2
- binding result [2]: binds

Binder: MADAWEEIRRLAADFQRAQFA [UFL1 (1-21), UFC1-binding sequence peptide]
- Kd [3]: 410 nM
